These results are taken from patent US20120177676A1 (COMPLIX, published 2012).

In this test the target is T1, biotinylated C36 peptide bL4_C36 (residues 628 to 663 of HIV-1 HXB2 Env, gp41 HR2) (HIV-1 HXB2, N-terminal biotin attached through the Gly-Ser-Gly-Ser linker; C-terminal amide).
T1 construct: also called C36 derivative
T1 peptide: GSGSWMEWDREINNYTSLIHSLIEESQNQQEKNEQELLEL
Nature of the test: ITC, bL4_C36 (50 microM, syringe) titrated into scAB013_N3 (2.46 microM, cell), 1:1 binding model. Background: ITC needs no label: the signal is the heat of the interaction.

B1: scAB013_N3 Alphabody, N-terminally appended with a (His)6 tag (designed binder)
chain: HHHHHHAAIAAQQHLIALIQWGIAQLQARIYAMTGGSSGGMSIEEIQKQIAAIQKQIAAIQKQIYRMTGGSSGGMSIQAIQKQLQAIVKQIKAIQKQILAMEA
notes: Expressed in E. coli BL21(DE3) from pET16b and purified by IMAC and SEC; also called gp41 N-trimer-mimicking Alphabody
As usually defined, the Kd is the concentration at which binding is half-saturated. For the molecule B1, the Kd was 150 nM and the ΔH is -7.17 kcal/mol.
